In paper PMC11024197 (2024):

T1: PEX14 NTD (1-104) (human, UniProt O75381 1-104)
T1 chain: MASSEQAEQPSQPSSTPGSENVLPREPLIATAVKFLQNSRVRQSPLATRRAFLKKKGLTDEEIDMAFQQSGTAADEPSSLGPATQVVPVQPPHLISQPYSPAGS


Molecular target: T1, PEX14 NTD (1-104)
Test: ITC

| Kd | Binder |
| --- | --- |
| 72 nM | ALSENWAQEFLAAGD [PEX5 W1 peptide] |
| 21 nM | AQAEQWAAEFIQQQG [PEX5 W5 peptide] |
